Measured values published in patent US20230265179A1 (TWIST BIOSCIENCE, published 2023).

Target: T1, IL1RL2 over-expressed on Expi293 cells (UniProt Q9HB29 20-575, limits assumed)
T1 construct: whole, on cells; Target of the flow cytometry assay; MFI ratio is over-expressing cells over parent cells
T1 sequence (looked up): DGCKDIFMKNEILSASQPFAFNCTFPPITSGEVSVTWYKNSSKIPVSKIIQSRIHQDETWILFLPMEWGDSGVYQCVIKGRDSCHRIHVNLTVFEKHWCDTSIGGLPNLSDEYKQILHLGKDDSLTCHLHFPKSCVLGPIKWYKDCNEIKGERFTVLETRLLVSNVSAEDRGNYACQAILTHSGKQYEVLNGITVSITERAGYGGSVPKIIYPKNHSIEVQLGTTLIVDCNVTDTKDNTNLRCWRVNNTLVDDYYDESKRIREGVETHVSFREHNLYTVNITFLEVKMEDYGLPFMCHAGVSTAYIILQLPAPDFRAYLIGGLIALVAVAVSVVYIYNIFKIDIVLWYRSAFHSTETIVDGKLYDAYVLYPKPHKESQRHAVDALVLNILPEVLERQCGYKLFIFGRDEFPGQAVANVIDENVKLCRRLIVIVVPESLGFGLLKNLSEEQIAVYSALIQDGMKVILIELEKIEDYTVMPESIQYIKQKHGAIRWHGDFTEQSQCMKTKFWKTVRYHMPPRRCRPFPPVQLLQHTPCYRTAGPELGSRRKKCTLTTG
Experiment: flow cytometry, over-expressing Expi293 vs parent cells, 100 nM antibody;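 note: ratio is mean fluorescence intensity on over-expressing Expi293 cells divided by that measured on parental Expi293 cells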
Method: (§1) All incubations and washes were in buffer containing PBS+1% BSA. MFI Ratio is defined by the mean fluorescence intensity (MFI) of the cytokine over-expressing Expi293 cell over the Expi293 parent cell. […] EC50 was calculated in GraphPad Prism.

| Binder | 100 nM FACS (MFI Ratio) |
| --- | --- |
| IL1RL2-2 (VHH, VHH-Fc based on IgG2 Fc) VHH: EVQLVESGGGLVQPGGSLRLSCAASGFTRSYYTMGWFRQAPGKERELVASITRGGGTTYADSVKGRFTISADNSKNTAYLQMNSLKPEDTAVYYCADVNGDWGQGTLVTVSS | 9.22 |
| IL1RL2-31 (VHH, VHH-Fc based on IgG2 Fc) VHH: EVQLVESGGGLVQPGGSLRLSCAASGRTFDSYDMGWFRQAPGKERELVASITFGGVTNYADSVKGRFTISADNSKNTAYLQMNSLKPEDTAVYYCADVNGDWGQGTLVTVSS | 7.16 |
| IL1RL2-11 (VHH, VHH-Fc based on IgG2 Fc) VHH: EVQLVESGGGLVQPGGSLRLSCAASGRTFSRYAMGWFRQAPGKEREFVAAINWSGARTYYADSVKGRFTISADNSKNTAYLQMNSLKPEDTAVYYCAVSQPLNYYTYYDARRYDWGQGTLVTVSS | 22.4 |

Target: T2, IL1RL2 (UniProt Q9HB29 20-335, limits assumed)
T2 construct: Soluble analyte of the SPR runs
T2 sequence (looked up): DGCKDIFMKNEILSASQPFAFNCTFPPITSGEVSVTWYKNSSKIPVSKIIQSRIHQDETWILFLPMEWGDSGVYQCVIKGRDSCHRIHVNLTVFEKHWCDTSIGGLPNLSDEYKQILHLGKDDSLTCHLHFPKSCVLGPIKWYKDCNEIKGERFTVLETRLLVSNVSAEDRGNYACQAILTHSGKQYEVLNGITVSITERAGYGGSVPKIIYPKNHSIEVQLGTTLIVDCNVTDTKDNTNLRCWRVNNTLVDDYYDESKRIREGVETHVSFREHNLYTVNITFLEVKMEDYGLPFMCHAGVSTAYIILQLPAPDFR
Experiment: SPR (Carterra LSA), antibody immobilised, 1:1 model
Method: SPR experiments were performed on a Carterra LSA SPR biosensor equipped with a HC30M chip at 25° C. in HBS-TE. Antibodies were diluted to 10 μg/mL and amine-coupled to the sensor chip by EDC/NHS activation, followed by ethanolamine HCl quenching. Increasing concentrations of analyte were flowed over the sensor chip in HBS-TE with 0.5 mg/mL BSA with 5-minute association and 15-minute dissociation. Following each injection cycle the surface was regenerated with 2× 30-second injections of IgG elution buffer (Thermo). Data were analyzed in Carterra's Kinetics Tool software with 1:1 binding model.

| Binder | Kd [nM] | koff [s⁻¹] | kon [M⁻¹ s⁻¹] |
| --- | --- | --- | --- |
| IL1RL2-2 (VHH, VHH-Fc based on IgG2 Fc) VHH: EVQLVESGGGLVQPGGSLRLSCAASGFTRSYYTMGWFRQAPGKERELVASITRGGGTTYADSVKGRFTISADNSKNTAYLQMNSLKPEDTAVYYCADVNGDWGQGTLVTVSS | 10.2 | 0.000784 | 76900 |
| IL1RL2-31 (VHH, VHH-Fc based on IgG2 Fc) VHH: EVQLVESGGGLVQPGGSLRLSCAASGRTFDSYDMGWFRQAPGKERELVASITFGGVTNYADSVKGRFTISADNSKNTAYLQMNSLKPEDTAVYYCADVNGDWGQGTLVTVSS | 3.82 | 0.000318 | 83300 |
| IL1RL2-11 (VHH, VHH-Fc based on IgG2 Fc) VHH: EVQLVESGGGLVQPGGSLRLSCAASGRTFSRYAMGWFRQAPGKEREFVAAINWSGARTYYADSVKGRFTISADNSKNTAYLQMNSLKPEDTAVYYCAVSQPLNYYTYYDARRYDWGQGTLVTVSS | 8.48 | 0.000342 | 40400 |

Target: T3, CD40L (UniProt P29965 1-261, limits assumed)
T3 construct: whole, on cells; also called cytokine over-expressing Expi293 cells (CD40L)
T3 sequence (looked up): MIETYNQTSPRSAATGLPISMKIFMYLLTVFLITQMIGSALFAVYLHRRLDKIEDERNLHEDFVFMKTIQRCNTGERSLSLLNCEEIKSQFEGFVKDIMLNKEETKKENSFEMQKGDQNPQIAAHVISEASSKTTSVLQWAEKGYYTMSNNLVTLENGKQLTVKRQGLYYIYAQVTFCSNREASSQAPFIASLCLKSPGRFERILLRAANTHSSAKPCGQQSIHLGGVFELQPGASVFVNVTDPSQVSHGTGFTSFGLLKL
Experiment: flow cytometry, 100 nM IgG, CD40L over-expressing Expi293 cells over parent Expi293 cells
Method: as §1

| Binder | 100 nM FACS (MFI Ratio) [MFI ratio] |
| --- | --- |
| CD40L-371 (antibody, V domains shown) VH: EVQLLESGGGLVQPGGSLRLSCAASGFTSNIYAMSWVRQAPGKGLEWVSAISGSGFSTYYADSVKGRFTISRDNSKNTLYLQMNSLRAEDTAVYYCAKLAQNYGDPDAFDIWGQGTLVTVSS VL: DIQMTQSPSSLSASVGDRVTITCRASQSISKYLNWYQQKPGKAPKLLIYAATSLESGVPSRFSGSGSGTDFTLTISSLQPEDFATYYCQQSYSTPLFTFGGGTKVEIK | 3.5 |
| CD40L-372 (antibody, V domains shown) VH: EVQLLESGGGLVQPGGSLRLSCAASGFTFTSYAMTWVRQAPGKGLEWVSSITSSGGSTYYADSVKGRFTISRDNSKNTLYLQMNSLRAEDTAVYYCARAHDYDSMLMDYWGQGTLVTVSS VL: DIQMTQSPSSLSASVGDRVTITCRASQSIRSYLNWYQQKPGKAPKLLIYATSSLHSGVPSRFSGSGSGTDFTLTISSMQPEDFATYYCQQSFSLPPTFGGGTKVEIK | 8.5 |
| CD40L-373 (antibody, V domains shown) VH: EVQLLESGGGLVQPGGSLRLSCAASGFTFRTYAMGWVRQAPGKGLEWVSAISGSGGIAYYADSVKGRFTISRDNSKNTLYLQMNSLRAEDTAVYYCARHYYYDSSDAFDIWGQGTLVTISS VL: DIQMTQSPSSLSASVGDRVTITCRGSQSISSFLNWYQQKPGKAPKLLIYAASKLHSGVPSRFSGSGSGTDFTLTISSLQPEDFATYYCQHSYSTPLTFGGGTKVEIK | 1.7 |
| CD40L-404 (antibody, V domains shown) VH: EVQLLESGGGLVQPGGSLRLSCAASGFTFRTYAMGWVRQAPGKGLEWVSAISGSGGIAYYADSVKGRFTISRDNSKNTLYLQMNSLRAEDTAVYYCARHYYYDSSDAFDIWGQGTLVTISS VL: DIQMTQSPSSLSASVGDRVTITCRASQTISYYLNWYQQKPGKAPKLLIYDATSLQSGVPSRFSGSGSGTDFTLTISSLQPEDFATYYCQQTYSLPLTFGGGTKVEIK | 7.1 |
| CD40L-376 (antibody, V domains shown) VH: EVQLLESGGGLVQPGGSLRLSCAASGFTFSSYAMSWVRQAPGKGLEWVSAISASGGTTYYADSVKGRFTISRDNSKNTLYLQMNSLRAEDTAVYYCARSHDYDRQTFDYWGQGTLVTVSS VL: DIQMTQSPSSLSASVGDRVTITCRASQSISTFLSWYQQKPGKAPKLLIYATSTLESGVPSRFSGSGSGTDFTLTISSLQPEDFATYYCQQSYSTPLTFGGGTKVEIK | 13.5 |
| CD40L-380 (antibody, V domains shown) VH: EVQLLESGGGLVQPGGSLRLSCAASGFGFSSYAMSWVRQAPGKGLEWVSAISGGGGSIYYADSVKGRFTISRDNSKNTLYLQMNSLRAEDTAVYYCARAHDYDSMLMDYWGQGTLVTVSS VL: DIQMTQSPSSLSASVGDRVTITCRASQSVSRFLNWYQQKPGKAPKLLIYAASTLQPGVPSRFSGSGSGTDFTLTISSLQPEDFATYYCQQSYETPLTFGGGTKVEIK | 8.4 |
| CD40L-381 (antibody, V domains shown) VH: EVQLLESGGGLVQPGGSLRLSCAASGFTFSSYDMNWVRQAPGKGLEWVAAISGSGGTTYYADSVKGRFTISRDNSKNTLYLQMNSLRAEDTAVYYCARGVYESMTGTYGYVDWFDPWGQGTLVTVSS VL: DIQMTQSPSSLSASVGDRVTITCRASQSIPTYLNWYQQKPGKAPKLLIYAAANLQSGVPSRFSGSGSGTDFTLTISSLQPEDFATYYCQQSYATPFTFGGGTKVEIK | 1.7 |
| CD40L-382 (antibody, V domains shown) VH: EVQLLESGGGLVQPGGSLRLSCAASGFGFSSYAMSWVRQAPGKGLEWVSAISGGGGSIYYADSVKGRFTISRDNSKNTLYLQMNSLRAEDTAVYYCATDYGDYDRLNFDLWGQGTLVTVSS VL: DIQMTQSPSSLSASVGDRVTITCRASQSIGTFLNWYQQKPGKAPKLLIYGTSNLQSGVPSRFSGSGSGTDFTLTISSLQPEDFATYYCQQGYRTPLTFGGGTKVEIK | 10.7 |
| CD40L-383 (antibody, V domains shown) VH: EVQLLESGGGLVQPGGSLRLSCAASGFTFSNYAMSWVRQAPGKGLEWVSAITGSGSTTYYADSVKGRFTISRDNSKNTLYLQMNSLRAEDTAVYYCARAHDYDSMLMDYWGQGTLVTVSS VL: DIQMTQSPSSLSASVGDRVTITCRASQYINNYLNWYQQKPGKAPKLLIYASSTLQRGVPSRFSGSGSGTDFTLTISSLQPEDFATYYCQQSFSTPITFGGGTKVEIK | 24.1 |
| CD40L-398 (antibody, V domains shown) VH: EVQLLESGGGLVQPGGSLRLSCAASGFTFSNYAMSWVRQAPGKGLEWVSAITGSGSTTYYADSVKGRFTISRDNSKNTLYLQMNSLRAEDTAVYYCARAHDYDSMLMDYWGQGTLVTVSS VL: DIQMTQSPFSLSASVGDRVTITCRASQNILTYLNWYQQKPGKAPKLLIYGASTLRSGVPSRFSGSGSGTDFTLTISSLQPEDFATYYCQQSYRLPLTFGGGTKVEIK | 45.1 |
| CD40L-403 (antibody, V domains shown) VH: EVQLLESGGGLVQPGGSLRLSCAASGFTFRNYGMNWVRQAPGKGLEWVSSISGSGDYTYYADSVKGRFTISRDNSKNTLYLQMNSLRAEDTAVYYCARGLTYDILPRFDSWGQGTLVTVSS VL: DIQMTQSPSSLSASVGDRVTITCRASQTISPYLNWYQQKPGKAPKLLIYAASTLQAGVPSRFSSSGSGTDFTLTISSLQPEDFATYYCQQSYSLPLTFGGGTKVEIK | 3.1 |
| CD40L-414 (antibody, V domains shown) VH: EVQLLESGGGLVQPGGSLRLSCAASGFTFSNYAMSWVRQAPGKGLEWVSAITGSGSTTYYADSVKGRFTISRDNSKNTLYLQMNSLRAEDTAVYYCATDYGDYDRLNFDLWGQGTLVTVSS VL: DIQMTQSPSSLSASVGDRVTITCRASQSIGTFLNWYQQKPGKAPKLLIYGTSNLQSGVPSRFSGSGSGTDFTLTISSLQPEDFATYYCQQGYRTPLTFGGGTKVEIK | 11.2 |
| CD40L-416 (antibody, V domains shown) VH: EVQLLESGGGLVQPGGSLRLSCAASGFTFSNYAMSWVRQAPGKGLEWVSAISGSGHSTYYADSVKGRFTISRDNSKNTLYLQMNSLRAEDTAVYYCARGGGYYNPLLFDYWGQGTLVTVSS VL: DIQMTQSPSSLSASVGDRVTITCRASQYISTYLNWYQQKPGKAPKLLIYAASTLETGVPSRFSGSGSGTDFTLTISSLQPEDFATYYCQQSYSIPPVTFGGGTKVEIK | 3.4 |
| CD40L-419 (antibody, V domains shown) VH: EVQLLESGGGLVQPGGSLRLSCAASGFTFSNYAMSWVRQAPGKGLEWVSAITGSGSTTYYADSVKGRFTISRDNSKNTLYLQMNSLRAEDTAVYYCARAHDYDSMLMDYWGQGTLVTVSS VL: DIQMTQSPSSLSASVGDRVTITCRAGQSISSYLNWYQQKPGKAPKLLIYASSTLQRGVPSRFSGSGSGTDFTLTISSLQPEDFATYYCQQSHSVPLTFGGGTKVEIK | 18.6 |
| CD40L-434 (antibody, V domains shown) VH: EVQLLESGGGLVQPGGSLRLSCAASGFGFSSYAMSWVRQAPGKGLEWVSAISGGGGSIYYADSVKGRFTISRDNSKNTLYLQMNSLRAEDTAVYYCARHGGYYYYYMDVWGQGTLVTVSS VL: DIQMTQSPSSLSASVGDRVTITCRASQSVSRFLNWYQQKPGKAPKLLIYAASTLQPGVPSRFSGSGSGTDFTLTISSLQPEDFATYYCQQSYETPLTFGGGTKVEIK | 6.1 |
